Key:
[1] = target: T1, Actin from rabbit skeletal muscle (F-actin) (rabbit, UniProt P68135 1-377); test: co-sedimentation; high-speed pelleting at 200,000 x g, 4 °C, 1 h; 8 µM G-actin polymerised with increasing Swip-1 in 1x KMEI (10 mM imidazole pH 7.0, 50 mM KCl, 1 mM MgCl2, 1 mM EGTA) for 2 h at 4 °C; absence of calcium; fit to independent, identical binding sites; details: both partners purified
[2] = target: T1, Actin from rabbit skeletal muscle …; test: co-sedimentation; high-speed pelleting at 200,000 x g, 4 °C, 1 h; 8 µM G-actin polymerised with increasing Swip-1 in 1x KMI (10 mM imidazole pH 7.0, 50 mM KCl, 1 mM MgCl2) with 1 mM CaCl2 for 2 h at 4 °C; presence of calcium; fit to independent, identical binding sites; details: both partners purified

B1: Drosophila Swip-1 (EFhD2/Swip-1), recombinant wild type (natural protein)
chain: MSVSSNASSASNKDSVDSPSSTTNTDSSELTHILNRRQEIMESQEAGIEVRRTYKVVNVYTDFPEFSRNQIKDYQKTFNTYDTARDGFLDLQELKFMMEKLGAPQTHLGLKQMIAEVDEDNDGKISFREFLLIFRKAQAGELDSDSGLNQLARLTEVDVEQVGVSGAKNFFEAKIEQQLRTNKFHDEIRAEQEERRREEEERAQRRQQFQQRAAIFQ
notes: residues left after PreScission cleavage are not described; source: E. coli Rossetta 2, purified (glutathione agarose, GST cleaved by PreScission protease, size-exclusion chromatography)
B1 was tested, and the Kd [1] was 4300 ± 1300 nM, the “stoichiometry N” value [1] was ~1 Swip-1:actin and the Kd [2] was 900 ± 100 nM. For the same binder, the “stoichiometry N” value [2] was ~0.5 Swip-1:actin.

Reference: publication PMC9076686, “Calcium bursts allow rapid reorganization of EFhD2/Swip-1 cross-linked actin networks in epithelial wound closure” (Nature Communications, 2022)
